{
  "source": "the nanobody polyreactivity screen of Harvey et al. (2022)",
  "data": [
    {"test": "yeast display, Sf9 membrane polyspecificity reagent, FACS + sequencing; frameworks hold sequencing errors", "how_it_was_run": "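Galactose induction of a Saccharomyces cerevisiae BJ5465 synthetic nanobody display library ran 36–48 hours. The cells were then stained for 1 hour at 4 °C with 10% biotinylated, detergent-solubilized Sf9 membrane reagent, pulled down on streptavidin microbeads and FACS-sorted into low and high (top ~1%) gates on expression and reagent-binding fluorescence. Labels for polyreactivity follow the gate of origin.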", "values": [
      {"sequence": "QVQLVESGGGLVQAGGSLRLSCAASGSIFVNYAIGWYRQAPGKERELVAAISRSGGRTYYADSVKGRFTISRDNAMNSVYLQMNSLKPEDTAVYYCNVYPVLRTIEGDYWGQGTQVTVSS", "polyreactivity (PSR sort gate)": "high polyreactivity"},
      {"sequence": "QVQLVESGGGLVQAGGSLRLSCAASGSIFVPNAMGWYRQAPGKERELVAAITSGGSTYYADSVKGRFTISRDNAKNTVYLQMNSLKPEDTAVYYCAAEYWLGLYTYDYWGQGTQVTVSS", "polyreactivity (PSR sort gate)": "high polyreactivity"},
      {"sequence": "QVQLVESGGGLVQAGGSLRLSCAASGSIFVPYAMGWYRQAPGKERELVAAISYRGGNTYYADSVKGRFTISRDKAKNTVSLQMNSLKPEDTAVYYCNAGVSIGRSRRDDYWGQGTQVTVSS", "polyreactivity (PSR sort gate)": "low polyreactivity"},
      {"sequence": "QVQLVESGGGLVQAGGSLRLSCAASGSIFVQNAMGWYRQAPGKERELVAAINSGGSTYYADSVKGRFTISRDNANNTVYLQMNSLKPEDTAVYYCAADHNYYAYSYYYWGQGTQVTVSS", "polyreactivity (PSR sort gate)": "low polyreactivity"},
      {"sequence": "QVQLVESGGGLVQAGGSLRLSCAASGSIFVRNAMGWYRQAPGKERELVAAITSDVNTYYADSVKGRFTISRDNGKNTVYLQMNSLKPEDTAVYYCAKGVTSQPNDPAPFPRYEYWGQGTQVTVSS", "polyreactivity (PSR sort gate)": "low polyreactivity"},
      {"sequence": "QVQLVESGGGLVQAGGSLRLSCAASGSIFVRNTMGWYRQAPGKERELVASIDWSGGITYYADSVKGRFTISRDNAKNTVYLQMNSLKPEDTAVYYCNAVFLYPFNVPTMEYWGQGTQVTVSS", "polyreactivity (PSR sort gate)": "low polyreactivity"},
      {"sequence": "QVQLVESGGGLVQAGGSLRLSCAASGSIFVRNTMGWYRQAPGKERELVATISSGGRTNYADSVKGRFTISRDNAKNTVYLQMNSLKPEDTAVYYCNRPRWYGGSPYYYWGQGTQVTVSS", "polyreactivity (PSR sort gate)": "high polyreactivity"},
      {"sequence": "QVQLVESGGGLVQAGGSLRLSCAASGSIFVRNTMGWYRQAPGKERELVATISSGGRTYYADSVKGRFTISRDNAKNTVYLQMNSLKPEDTAVYYCAAGYSYAQYSYPFLSFAFGYWGQGTQVTVSS", "polyreactivity (PSR sort gate)": "high polyreactivity"},
      {"sequence": "QVQLVESGGGLVQAGGSLRLSCAASGSIFVRNVMGLYRQAPGKERELVATIRYRGGSTYYADSVKGRFSISRDNAKNTVYLQMNSLKPEDTAVYYCNARYLWADEYYYWGQGTQVTVSS", "polyreactivity (PSR sort gate)": "low polyreactivity"},
      {"sequence": "QVQLVESGGGLVQAGGSLRLSCAASGSIFVRYAMGWYRQAPGKERELVAAFTSSAGSTYYADSVKGRFTISRDNAKNTVYLQMNSLKPEDTAVYYCAAVRYYPSKFYYWGQGTQVTVSS", "polyreactivity (PSR sort gate)": "high polyreactivity"},
      {"sequence": "QVQLVESGGGLVQAGGSLRLSCAASGSIFVSNAMGWYRQAPGKERELVAAISYSTSRTYYADSVKGRFTISRDNAKNTVYLQMNSLKPEDTAVYYCAVRVRVADGRSNYWGQGTQVTVSS", "polyreactivity (PSR sort gate)": "high polyreactivity"},
      {"sequence": "QVQLVESGGGLVQAGGSLRLSCAASGSIFVTNAMGWYRQAPGKEREWVAAISVSGGSTYYADSVKGRFTISRDNAKNTVYLQMNSLKPEDTAVYYCAAPGRLFSLYDYWGQGTQVTVSS", "polyreactivity (PSR sort gate)": "low polyreactivity"},
      {"sequence": "QVQLVESGGGLVQAGGSLRLSCAASGSIFVTYAMGWYRQAPGKERELVAVITWGGGSTYYADSVKGRFTISRDNAKNTVYLQMNSLKQEDTAVYYCAKDAFFTEIAIRDHIISHHYYWGQGTQVTVSS", "polyreactivity (PSR sort gate)": "low polyreactivity"},
      {"sequence": "QVQLVESGGGLVQAGGSLRLSCAASGSIFVTYGMGWYRQAPGKERELVARITTSGGSTYYADSVKGRFTISRDNAKNTVYLQMNSLKQEDTAVYYCNVRFAWGWTYWRYDYWGQGTQVTVSS", "polyreactivity (PSR sort gate)": "high polyreactivity"},
      {"sequence": "QVQLVESGGGLVQAGGSLRLSCAASGSIFVVNAMGWYRQAPGKERELVAGISFRGGTTYYADSVKGRFTISRDNAMNTVYLQMNSLKPEDTAVYYCNAVYTSNRNEYDYWGQGTQVTVSS", "polyreactivity (PSR sort gate)": "low polyreactivity"},
      {"sequence": "QVQLVESGGGLVQAGGSLRLSCAASGSIFVVYAMGWYRQAPGKERELVAGISDGDNTNYADSVKGRFTISRDNAKNTVYLQMNSLKPEDTAVYYCNADGTSRNLEGFDYWGQGTQVTVSS", "polyreactivity (PSR sort gate)": "low polyreactivity"},
      {"sequence": "QVQLVESGGGLVQAGGSLRLSCAASGSIFVWYAMGWYRQAPGKERELVARITSGGRTNYADSVKGRFTISRDNAKNTVYLQMNSLKPEDTAVYDCAAGRVSWSPYYYWGQGTQVNVSS", "polyreactivity (PSR sort gate)": "high polyreactivity"}
    ]}
  ]
}
